The results in this text go back to the supplement of paper PMC9112550, “Optimization of the antimicrobial peptide Bac7 by deep mutational scanning” (BMC Biology, 2022).

The test system of the data set is Escherichia coli TOP10. Put plainly: shrunken log2 fold change of peptide-encoding DNA abundance (4.5 h post-induction vs induction); higher = less antimicrobial activity (less host growth inhibition). The note with it: time post-induction: 4.5 h; library: site-saturation at positions 5, 18, 19, 20.
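Further: peptides expressed intracellularly from a pBAD plasmid library in pooled LB shake-flask culture, induced with 0.3% L-arabinose, DNA abundance read by NGS, three biological replicates, DESeq2 with apeglm shrinkage.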

Turning to RRIRFRPPRLPRPRPRPWIMPRP, the “shrunken log2 fold change” value was -0.206.
Consider RRIRHRPPRLPRPRPRPPRCPRP, for which the “shrunken log2 fold change” value was 0.526.
With RRIRNRPPRLPRPRPRPWHEPRP the figure was -0.454.
Then RRIRQRPPRLPRPRPRPNLLPRP, with -0.0134; and RRIRPRPPRLPRPRPRPWWGPRP, with -0.0751; and RRIRTRPPRLPRPRPRPAVWPRP, with 0.556.
With RRIRQRPPRLPRPRPRPQNSPRP, the “shrunken log2 fold change” value was -0.0328.
Regarding RRIRDRPPRLPRPRPRPQDWPRP, the “shrunken log2 fold change” value was 0.324.
Then RRIRFRPPRLPRPRPRPISHPRP, with -0.202.
Consider RRIRTRPPRLPRPRPRPTIKPRP, for which the “shrunken log2 fold change” value is -0.051.
For RRIRQRPPRLPRPRPRPQDNPRP, the “shrunken log2 fold change” value is -0.304.
With RRIRGRPPRLPRPRPRPSTHPRP the figure was 0.159.
On to RRIRGRPPRLPRPRPRPYAYPRP, for which the “shrunken log2 fold change” value is -0.0803.
Regarding RRIRARPPRLPRPRPRPYFKPRP, the “shrunken log2 fold change” value was -0.551.
Regarding RRIRMRPPRLPRPRPRPSNHPRP, the “shrunken log2 fold change” value came out at 0.00558.
With RRIRVRPPRLPRPRPRPYCPPRP the figure was -0.462; with RRIRSRPPRLPRPRPRPQVEPRP, 0.0664.
With RRIRERPPRLPRPRPRPQHQPRP the figure was -0.15.
With RRIRNRPPRLPRPRPRPRYGPRP the figure was -0.0289.
Consider RRIRDRPPRLPRPRPRPEKHPRP, for which the “shrunken log2 fold change” value came to 0.377.
For the sequence RRIRVRPPRLPRPRPRPWDPPRP, the “shrunken log2 fold change” value was -0.301.
As for RRIRDRPPRLPRPRPRPLNWPRP, the “shrunken log2 fold change” value turned out to be 0.0327.
Then RRIRYRPPRLPRPRPRPAKNPRP, with -0.508; and RRIRCRPPRLPRPRPRPLDFPRP, with -0.175; and RRIRKRPPRLPRPRPRPKYHPRP, with -0.204.
Then RRIRWRPPRLPRPRPRPKEQPRP, with 0.0237; and RRIRGRPPRLPRPRPRPTQKPRP, with 1.22; and RRIRMRPPRLPRPRPRPGKCPRP, with -0.0233.
In the case of RRIRVRPPRLPRPRPRPWDHPRP, the “shrunken log2 fold change” value is -0.103.
With RRIRSRPPRLPRPRPRPHKPPRP the figure was -0.507; with RRIRCRPPRLPRPRPRPSWDPRP, -0.134.
For the sequence RRIRVRPPRLPRPRPRPELLPRP, the “shrunken log2 fold change” value worked out at 0.0724.
Turning to RRIRRRPPRLPRPRPRPMMMPRP, the “shrunken log2 fold change” value is 0.0332.
With RRIRGRPPRLPRPRPRPEENPRP the figure was 1.21.
Then RRIRQRPPRLPRPRPRPGMHPRP, with -0.0509.
As for RRIRSRPPRLPRPRPRPTNHPRP, the “shrunken log2 fold change” value was -0.344.
In the case of RRIRSRPPRLPRPRPRPNTMPRP, the “shrunken log2 fold change” value was -0.154.
With RRIRDRPPRLPRPRPRPQHFPRP the figure was -0.422.
Consider RRIRWRPPRLPRPRPRPSITPRP, for which the “shrunken log2 fold change” value was -0.0237.
RRIRFRPPRLPRPRPRPLGEPRP: the “shrunken log2 fold change” value was 0.0158.
On to RRIRQRPPRLPRPRPRPVTDPRP, for which the “shrunken log2 fold change” value stood at 0.05.
For RRIRMRPPRLPRPRPRPCQSPRP, the “shrunken log2 fold change” value is 0.288.
Then RRIRCRPPRLPRPRPRPNGKPRP, with -0.8; and RRIRCRPPRLPRPRPRPTWSPRP, with 0.346; and RRIRQRPPRLPRPRPRPKWTPRP, with -0.164.
As for RRIRYRPPRLPRPRPRPIMPPRP, the “shrunken log2 fold change” value was -0.948.
Then RRIRTRPPRLPRPRPRPYHDPRP, with -0.13; and RRIRSRPPRLPRPRPRPISKPRP, with -0.211; and RRIRDRPPRLPRPRPRPPVQPRP, with 0.104.
With RRIRERPPRLPRPRPRPQCWPRP, the “shrunken log2 fold change” value was -0.0051.
For RRIRWRPPRLPRPRPRPFYKPRP, the “shrunken log2 fold change” value was -0.658.
With RRIRDRPPRLPRPRPRPNEGPRP the figure was -0.000567; with RRIRIRPPRLPRPRPRPPTPPRP, 0.238; with RRIRTRPPRLPRPRPRPSFWPRP, 0.277.
As for RRIRGRPPRLPRPRPRPIPTPRP, the “shrunken log2 fold change” value was determined as 0.00615.
With RRIRERPPRLPRPRPRPCKWPRP the figure was 0.0276.
Turning to RRIRIRPPRLPRPRPRPLDCPRP, the “shrunken log2 fold change” value is -0.267.
Then RRIRWRPPRLPRPRPRPCACPRP, with 0.0874; and RRIRPRPPRLPRPRPRPREVPRP, with 0.419.
With RRIRARPPRLPRPRPRPTKFPRP the figure was 0.0943.
In the case of RRIRDRPPRLPRPRPRPLNYPRP, the “shrunken log2 fold change” value was -0.372.
As to RRIRFRPPRLPRPRPRPNQEPRP, the “shrunken log2 fold change” value stood at 0.229.
Regarding RRIRRRPPRLPRPRPRPKKGPRP, the “shrunken log2 fold change” value was determined as 0.403.
On to RRIRRRPPRLPRPRPRPCDIPRP, for which the “shrunken log2 fold change” value came out at 0.181.
With RRIRERPPRLPRPRPRPYRIPRP the figure was -0.0789; with RRIRVRPPRLPRPRPRPWYNPRP, -0.153.
Consider RRIRQRPPRLPRPRPRPHLVPRP, for which the “shrunken log2 fold change” value was determined as 0.00244.
For RRIRWRPPRLPRPRPRPDNPPRP, the “shrunken log2 fold change” value came out at 0.208.
With RRIRARPPRLPRPRPRPGKVPRP the figure was 0.0119; with RRIRGRPPRLPRPRPRPIGFPRP, 0.061; with RRIRKRPPRLPRPRPRPTEYPRP, 0.0661.
Then RRIRSRPPRLPRPRPRPMQDPRP, with 0.125; and RRIRCRPPRLPRPRPRPKPLPRP, with 0.12; and RRIRKRPPRLPRPRPRPCSQPRP, with 0.0126.
For RRIRHRPPRLPRPRPRPGYTPRP, the “shrunken log2 fold change” value is -0.302.
With RRIRLRPPRLPRPRPRPHEKPRP, the “shrunken log2 fold change” value came out at 0.0162.
With RRIRTRPPRLPRPRPRPRVLPRP the figure was 0.242; with RRIRFRPPRLPRPRPRPIMMPRP, -0.529; with RRIRKRPPRLPRPRPRPWKVPRP, -0.000777.
With RRIRYRPPRLPRPRPRPPTKPRP the figure was 0.444; with RRIRARPPRLPRPRPRPGDQPRP, 0.804; with RRIRLRPPRLPRPRPRPFCHPRP, 0.0449.
With RRIRWRPPRLPRPRPRPSLVPRP the figure was -0.0104.
On to RRIRKRPPRLPRPRPRPDYAPRP, for which the “shrunken log2 fold change” value was 0.102.
With RRIRSRPPRLPRPRPRPVQEPRP the figure was 0.403.
As for RRIRVRPPRLPRPRPRPMTMPRP, the “shrunken log2 fold change” value was -0.0831.
On to RRIRRRPPRLPRPRPRPLNIPRP, for which the “shrunken log2 fold change” value is -0.651.
For the sequence RRIRKRPPRLPRPRPRPPQSPRP, the “shrunken log2 fold change” value is 0.863.
Then RRIRPRPPRLPRPRPRPCFLPRP, with -0.382; and RRIRPRPPRLPRPRPRPRCKPRP, with 0.215.
As to RRIRGRPPRLPRPRPRPHCDPRP, the “shrunken log2 fold change” value stood at 3.63.
Then RRIRCRPPRLPRPRPRPWDHPRP, with -0.259.
Then RRIRPRPPRLPRPRPRPWHRPRP, with -0.156; and RRIRHRPPRLPRPRPRPTSLPRP, with -0.135.
With RRIRERPPRLPRPRPRPDAMPRP the figure was -0.0916; with RRIRPRPPRLPRPRPRPVPAPRP, 0.361; with RRIRRRPPRLPRPRPRPGDKPRP, -0.292.
For RRIRDRPPRLPRPRPRPGYQPRP, the “shrunken log2 fold change” value was -0.0782.
With RRIRCRPPRLPRPRPRPPSMPRP the figure was 0.0264; with RRIRVRPPRLPRPRPRPCWAPRP, 0.154.
With RRIRGRPPRLPRPRPRPPFFPRP, the “shrunken log2 fold change” value is 0.851.
Consider RRIRKRPPRLPRPRPRPDRSPRP, for which the “shrunken log2 fold change” value is -0.231.
Then RRIRPRPPRLPRPRPRPNGQPRP, with 0.097.
As to RRIRDRPPRLPRPRPRPITHPRP, the “shrunken log2 fold change” value was -0.305.
As for RRIRFRPPRLPRPRPRPMNLPRP, the “shrunken log2 fold change” value is -0.623.
For RRIRARPPRLPRPRPRPASRPRP, the “shrunken log2 fold change” value was 0.44.
With RRIRIRPPRLPRPRPRPRPFPRP the figure was -0.253; with RRIRGRPPRLPRPRPRPWRSPRP, 0.172; with RRIRARPPRLPRPRPRPVALPRP, 0.411.
For RRIRSRPPRLPRPRPRPAGGPRP, the “shrunken log2 fold change” value is 0.529.
As for RRIRSRPPRLPRPRPRPCCEPRP, the “shrunken log2 fold change” value is -0.22.
With RRIRHRPPRLPRPRPRPVCDPRP the figure was -0.41.
As to RRIRTRPPRLPRPRPRPMFTPRP, the “shrunken log2 fold change” value is -0.253.
Take RRIRTRPPRLPRPRPRPIMCPRP: the “shrunken log2 fold change” value is -0.255.
Then RRIRSRPPRLPRPRPRPDRAPRP, with 0.611; and RRIRYRPPRLPRPRPRPFEAPRP, with -0.886.
RRIRMRPPRLPRPRPRPEMMPRP: the “shrunken log2 fold change” value stood at 0.316.
Then RRIRGRPPRLPRPRPRPKIDPRP, with 0.372; and RRIRFRPPRLPRPRPRPRIIPRP, with -0.514.
With RRIRPRPPRLPRPRPRPGPRPRP the figure was 0.677.
With RRIRRRPPRLPRPRPRPGSSPRP the figure was 0.103; with RRIRKRPPRLPRPRPRPYGRPRP, -0.0362; with RRIRDRPPRLPRPRPRPILFPRP, -0.185.
Regarding RRIRCRPPRLPRPRPRPEIEPRP, the “shrunken log2 fold change” value is -0.00676.
With RRIRKRPPRLPRPRPRPQCCPRP the figure was -0.101.
